The results in this text go back to patent publication US10494415B2, “Insulin-like growth factor 2 (IGF2) binding agents” (Cancer Research Technology Limited, priority 2015, dated 2019).

Marks after values point to notes of the source that are not given here.

The target in one data set is T1, IGF2^1-67 (Homo sapiens, UniProt P01344).
T1 construct: Recombinant mature (IGF2^1-67 [7.5 kDa]
The experiment in a line: SPR of IGF forms on Fc-domain 11 proteins immobilised by antibody capture. The class given is binding. The note with it: HBS-EP pH 7.4. As for the experimental part: (§1) SPR analysis of the interaction of recombinant IGF1 and IGF2 forms with Fc-domain 11 proteins immobilised by antibody capture (CM5 chip containing monoclonal mouse anti-human IgG antibody immobilised by amine coupling). Measurements were carried out at 25° C. in HBS-EP buffer (pH 7.4).
(§2) Final kinetic analysis of mutants by SPR was conducted using a Biacore T200 biosensor at 25° C. in either HBS-EP (10 mM HEPES pH 7.4, 150 mM NaCl, 3 mM EDTA, and 0.005% (v/v) surfactant P20) or MES-EP (20 mM MES pH 6.5, 150 mM NaCl, 3 mM EDTA, and 0.005% (v/v) surfactant P20) at a flow-rate of 40 μL min^−1. […] For the analysis of the Fc-domain 11^AB5 interaction, approximately 50 RU of a biotinylated IGF2:biotinylated ubiquitin mixture (1:8 proportion) was immobilized on the CM5-streptavidin chip. This interaction was also analysed by immobilizing the Fc-domain 11^AB5 and Fc-domain 11^AB5-RHH (or Fc-domain 11^I1572A as control) by Human Antibody Capture (monoclonal mouse anti-human IgG antibody immobilised on a CM5 chip by amine coupling, GE Healthcare) with and without human IgG1 Fc fragment (Bethyl Laboratories, UK) in the control flow cell. Increasing concentrations of IGF2^1-67, proIGF2^1-104, proIGF2^1-156 and IGF1 ranging from 0.125 to 32 nM were injected. T200 BiaEvaluation software (GE Healthcare) was used to fit the resulting curves according to a 1:1 binding model. Steady state affinities were determined using the kinetic data, taking the response average at 5 seconds before injection end and for 5 seconds average. Thermodynamic data was performed across the temperature range of 10° C. to 30° C., van't Hoff and Erying plots generated and ΔH, −TΔS and ΔG values determined as previously described.

The target of a further data set is T2, IGF2^1-156 (Homo sapiens, UniProt P01344).
T2 construct: pro-IGF2^1-156 [17 kDa]
Described as above. The data set is classed as binding. As for the experimental part: as §1, §2

The target of another data set is T3, IGF2^1-104 (Homo sapiens, UniProt P01344).
T3 construct: pro-IGF2 (pro-IGF2^1-104 [11 kDa]
The description is as above. The note with it: HBS-EP pH 7.4. The data set is classed as binding. As for the experimental part:
as §1, §2

Data set [1] has as its system IGF2^1-67-induced hypoglycaemia. Description: IGF2-induced hypoglycaemia mouse model. The note with it: co-injected. The class given is in vivo. The source says: All animal experiments were approved by the animal use ethical committee of Oxford University and fully complied with UK Home Office guidelines (PPL 30/2695). Wild-type C57BL/6J and 129S2 mice were used throughout. Mice were anaesthetised using a rising concentration of isoflurane in oxygenated air and maintained using 2% isoflurane with 2 L min^−1 oxygen. Blood glucose measurements were taken using an Advantage diabetic glucose meter (Roche Diagnostics, Burgess Hill, UK). In order to test the direct inhibition of IGF2-induced hypoglycaemia by Fc-domain 11^AB5, blood glucose levels were allowed to normalise for 30 min prior to taking a baseline blood glucose reading, then either 1 mg kg^−1 IGF2 only (R&D systems), […], Fc-domain 11^RHH, or Fc-domain 11^I1572A ([…]) was injected. Blood glucose measurements were taken every 10 min for the following hour. For the Fc-domain 11^AB5 mouse preloading experiment, 11.7 mg kg^−1 Fc-domain 11^AB5 or PBS, as negative control, was injected immediately after induction of anaesthesia, 30 mins later a baseline blood glucose reading was taken and 1 mg kg^−1 IGF2 ([…]) was injected, readings were then taken every 10 min for the following hour. For the mouse IGF2 preloading experiment, 1 mg kg^−1 IGF2 was injected immediately after induction of anaesthesia, 30 min later a baseline blood glucose reading was taken and either 11.7 mg kg^−1 Fc-domain 11^AB5 ([…]) or PBS was injected, readings were then taken every 10 min for the following hour.

The subject of another data set is SKNMC-IGF2^104 cells. The experiment in a line: IGF2-TRAP synthetic lethality screen (resazurin viability). The data set is classed as cell-based, human. Particulars: fixed concentration of IGF2-TRAP alone, assay end point of 72 hrs. As for the experimental part:
For synthetic lethality screens (Target Discovery Institute, University of Oxford), either 2,500 or 5,000 SKNMC-IGF2104-IRES-luc cells were plated in medium containing 0.5% charcoal stripped FBS in 384 well plates and the IGF2-TRAP was added 24 h later to half of the plates. Using automated dispensing 307 oncology drugs that have been tested in man (TDI expanded Oncology Drug library) were added to cells 3 hrs later 10 μM, 1 μM, 100 nM and 10 nM, in the presence and absence of 250 nM IGF2-TRAP. After 48 hr of incubation, resazurin was added to a final concentration of 10 μg/mL and the fluorescence (Ex: 560 nm, Em: 590 nm) recorded at 2 hr. […] Pearson's product-moment correlation coefficient (r) was calculated to determine replicate correlation. […]
The interaction score was calculated where v was the viability readout for the drug condition, x^− was the sample mean of the negative controls and s was the sample standard deviation of the negative controls, z was calculated as z_treatment=(v−x^−)/s. z_(no_IT) was calculated from PBS control plates, comparing ‘drug d’ to same-plate negative controls ‘cells+DMSO’. z_IT was calculated from treated plates, comparing ‘drug d+IGF2-TRAP (IT)’ to same-plate negative controls ‘cells+IT+DMSO’. […] Interaction scores were calculated for each replicate r_(d,1)/r_(d,2)/r_(d,3) independently. […]

T1 sequence (P01344 25-91): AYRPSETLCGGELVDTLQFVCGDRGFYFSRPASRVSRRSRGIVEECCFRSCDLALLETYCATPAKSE
T3 sequence (P01344 25-128): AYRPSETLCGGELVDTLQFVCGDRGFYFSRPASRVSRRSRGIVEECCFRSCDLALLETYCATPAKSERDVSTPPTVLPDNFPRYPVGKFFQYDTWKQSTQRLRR
T2 sequence (P01344 25-180): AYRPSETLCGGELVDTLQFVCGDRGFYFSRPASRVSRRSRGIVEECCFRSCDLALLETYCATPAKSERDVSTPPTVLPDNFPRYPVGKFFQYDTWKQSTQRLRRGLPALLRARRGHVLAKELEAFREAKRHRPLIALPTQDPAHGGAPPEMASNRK

B1: Fc-domain 11^AB5-RHH: Fc-fusion of domain 11^AB5-RHH (IGF2-TRAP); IgG2 Fc form purified from CHO cells used for xenografts (protein)
chain: NEHDDCQVTNPSTGHLFDLSSLSGRAGFTAAYAKGWGVYMSICGENENCPPGVGACFGRTRISVGKANKRLRYVDQVLQLVYKDGSHCPSKHGLSYKSVISFVCRPEAGPTNRPMLISLDKQTCTLFFSWHTPLACEQAT
modifications: left off: a dimerising Fc or GST
notes: Fc-fusion of domain 11^AB5-RHH (IGF2-TRAP); IgG2 Fc form purified from CHO cells used for xenografts
In the case of B1, the figures for the Kinetics koff in the data set with IGF2^1-67, with IGF2^1-156 (HBS-EP pH 7.4) and with IGF2^1-104 were 0.0014 s⁻¹, 0.0003 s⁻¹ and 0.0005 s⁻¹, respectively. The figures for the Kinetics kon with IGF2^1-67, with IGF2^1-156 (may be inaccurate (mixture of three isoforms)) and with IGF2^1-104 were 2.6e+06 M⁻¹ s⁻¹, 0.23* ×10^6 M^−1s^−1 and 1.29e+06 M⁻¹ s⁻¹, respectively. Further, the “IGF2-induced hypoglycaemia (blood glucose)” value is given as “more efficient IGF2 antagonist than Fc-domain 11^AB5” in data set [1] (molar ratio 1:0.23); “significantly counteracted IGF2-induced hypoglycaemia” in data set [1] (molar ratio 1:0.23, listed as domain 11^AB5-RHH); “abrogation” in data set [1] (molar ratio 1:0.5). In addition, the “reduction in cell viability” value in the data set with SKNMC-IGF2^104 cells was 10-20%.
